{"source": "patent US20250243261A1", "key": {"[1]": {"target": "HA H4 Hubei, A/swine/Hubei/06/2009(H4N1) (Influenza A virus)"}, "[2]": {"target": "HA H7 HK16, A/Hong Kong/61/2016(H7N9) (Influenza A virus)"}, "[3]": {"target": "HA H7 HK17, A/Hong Kong/125/2017(H7N9) (Influenza A virus)"}, "[4]": {"target": "HA H2 Japan, A/Japan/305/1957(H2N2) (Influenza A virus)"}, "[5]": {"target": "HA H5 Vietnam, A/Vietnam/1203/2004(H5N1) (Influenza A virus)"}, "[6]": {"target": "HA H7 HK17, A/Hong Kong/125/2017(H7N9) (Influenza A virus)", "remark": "listed apart in the source"}, "[7]": {"target": "HA H7 HK16, A/Hong Kong/61/2016(H7N9) (Influenza A virus)", "remark": "listed apart in the source"}, "[8]": {"target": "HA H4 Hubei, A/swine/Hubei/06/2009(H4N1) (Influenza A virus)", "remark": "listed apart in the source"}, "[9]": {"target": "HA H7 HK17, A/Hong Kong/125/2017(H7N9) (Influenza A virus)", "remark": "listed apart in the source"}}, "note": "Where two headings read alike, the source gives them in different places."}
{"substance": "MEDI8852 VH E65P-M117Y Fab", "values": [{"measurement": "Kd", "setting": "[1]", "value": 0.36, "unit": "nM"}, {"measurement": "Kd", "setting": "[2]", "value": 2.7, "unit": "nM"}, {"measurement": "Kd", "setting": "[3]", "value": 0.043, "unit": "nM"}]}
{"substance": "MEDI8852 VL R92D Fab", "values": [{"measurement": "Kd", "setting": "[2]", "value": 26.4, "unit": "nM"}]}
{"substance": "MEDI8852 VL T25A Fab", "values": [{"measurement": "Kd", "setting": "[1]", "value": 1.45, "unit": "nM"}, {"measurement": "Kd", "setting": "[2]", "value": 16.8, "unit": "nM"}]}
{"substance": "MEDI8852 VL T33L Fab", "values": [{"measurement": "Kd", "setting": "[1]", "value": 3.2, "unit": "nM"}, {"measurement": "Kd", "setting": "[2]", "value": 41, "unit": "nM"}]}
{"substance": "MEDI8852 VH E65R-M117Y Fab", "values": [{"measurement": "Kd", "setting": "[1]", "value": 0.248, "unit": "nM"}, {"measurement": "Kd", "setting": "[2]", "value": 1.7, "unit": "nM"}, {"measurement": "Kd", "setting": "[3]", "value": 0.02, "unit": "nM"}, {"measurement": "Kd", "setting": "[4]", "value": "< 0.001", "unit": "nM"}, {"measurement": "Kd", "setting": "[5]", "value": "< 0.001", "unit": "nM"}, {"measurement": "fold improvement in Kd vs wildtype", "setting": "[6]", "value": 10, "unit": "fold"}, {"measurement": "fold improvement in Kd over wildtype", "setting": "[7]", "value": 3.6, "unit": "fold"}]}
{"substance": "MEDI8852 VH E65R Fab", "values": [{"measurement": "Kd", "setting": "[1]", "value": 0.32, "unit": "nM"}, {"measurement": "Kd", "setting": "[2]", "value": 1.54, "unit": "nM"}, {"measurement": "Kd", "setting": "[3]", "value": 0.036, "unit": "nM"}, {"measurement": "Kd", "setting": "[4]", "value": "< 0.001", "unit": "nM"}, {"measurement": "Kd", "setting": "[5]", "value": "< 0.001", "unit": "nM"}]}
{"substance": "MEDI8852 VL G95P Fab", "values": [{"measurement": "Kd", "setting": "[1]", "value": 0.802, "unit": "nM"}, {"measurement": "Kd", "setting": "[2]", "value": 5.31, "unit": "nM"}]}
{"substance": "MEDI8852 UCA VH K58S-V65P IgG (antibody)", "values": [{"measurement": "Kd", "setting": "[8]", "value": 80, "unit": "nM"}]}
{"substance": "MEDI8852 VH T53I Fab", "values": [{"measurement": "Kd", "setting": "[1]", "value": 0.747, "unit": "nM"}, {"measurement": "Kd", "setting": "[2]", "value": 10.3, "unit": "nM"}]}
{"substance": "MEDI8852 UCA VH K58S-V65P/VL G95P IgG (antibody)", "values": [{"measurement": "Kd", "setting": "[8]", "value": 30, "unit": "nM"}, {"measurement": "Kd", "setting": "[9]", "value": 5.6, "unit": "nM"}]}
{"substance": "MEDI8852 VH D27F Fab", "values": [{"measurement": "Kd", "setting": "[1]", "value": 0.9, "unit": "nM"}, {"measurement": "Kd", "setting": "[2]", "value": 9, "unit": "nM"}]}
{"substance": "MEDI8852 VH E65P Fab", "values": [{"measurement": "Kd", "setting": "[1]", "value": 0.31, "unit": "nM"}, {"measurement": "Kd", "setting": "[2]", "value": 2.33, "unit": "nM"}, {"measurement": "Kd", "setting": "[3]", "value": 0.1, "unit": "nM"}, {"measurement": "Kd", "setting": "[4]", "value": "< 0.001", "unit": "nM"}, {"measurement": "Kd", "setting": "[5]", "value": "< 0.001", "unit": "nM"}]}
{"substance": "MEDI8852 VH S44G Fab", "values": [{"measurement": "Kd", "setting": "[1]", "value": 0.596, "unit": "nM"}, {"measurement": "Kd", "setting": "[2]", "value": 7.03, "unit": "nM"}]}
{"substance": "MEDI8852 VH P75R Fab", "values": [{"measurement": "Kd", "setting": "[1]", "value": 0.779, "unit": "nM"}, {"measurement": "Kd", "setting": "[2]", "value": 7.14, "unit": "nM"}]}
{"substance": "MEDI8852 VH N74S Fab", "values": [{"measurement": "Kd", "setting": "[1]", "value": 0.531, "unit": "nM"}, {"measurement": "Kd", "setting": "[2]", "value": 5.98, "unit": "nM"}]}
{"substance": "MEDI8852 VL L29V Fab", "values": [{"measurement": "Kd", "setting": "[1]", "value": 4.2, "unit": "nM"}, {"measurement": "Kd", "setting": "[2]", "value": 80, "unit": "nM"}]}
{"substance": "MEDI8852 VH I24V Fab", "values": [{"measurement": "Kd", "setting": "[1]", "value": 0.87, "unit": "nM"}, {"measurement": "Kd", "setting": "[2]", "value": 8.58, "unit": "nM"}]}
{"substance": "MEDI8852 VL G55A Fab", "values": [{"measurement": "Kd", "setting": "[1]", "value": 0.512, "unit": "nM"}, {"measurement": "Kd", "setting": "[2]", "value": 5.11, "unit": "nM"}]}
{"substance": "MEDI8852 VH M117Y Fab", "values": [{"measurement": "Kd", "setting": "[1]", "value": 0.356, "unit": "nM"}, {"measurement": "Kd", "setting": "[2]", "value": 4.07, "unit": "nM"}]}
